Several values for one entry are separate records, joined by “and”; a condition that tells them apart may be missing. Equal entries are not always repeated.
Legend:
[1] = target: Cadonilimab (hG1WT); experiment: BLI
[2] = target: human CTLA-4 on 293 T-CTLA4 cells (human) (UniProt P16410); experiment: flow cytometry on cells
[3] = target: human PD-1 on 293 T-PD1 cells (human) (UniProt Q15116); experiment: flow cytometry on cells
[4] = target: fusion protein of mouse Fc with human PD-1 extracellular domain (PD1-mFc) (Homo sapiens (Human).) (UniProt Q15116); experiment: ELISA
[5] = target: fusion protein of human Fc with human PD-1 extracellular domain (PD1-hFc) (human) (UniProt Q15116); experiment: ELISA
[6] = target: human PD-1 and CTLA-4 mixture (mol/mol: 1/1) immobilized on AMC sensors (human); experiment: BLI
[7] = target: FcγRIIIa_F158 (FcγRIIIa 158 F alleles) (UniProt P08637); experiment: BLI
[8] = target: FcγRIa (UniProt P12314); experiment: BLI
[9] = target: FcγRIIIa_V158 (FcγRIIIa 158 V alleles); experiment: BLI

UniProt P08637, sequence (P08637 17-254): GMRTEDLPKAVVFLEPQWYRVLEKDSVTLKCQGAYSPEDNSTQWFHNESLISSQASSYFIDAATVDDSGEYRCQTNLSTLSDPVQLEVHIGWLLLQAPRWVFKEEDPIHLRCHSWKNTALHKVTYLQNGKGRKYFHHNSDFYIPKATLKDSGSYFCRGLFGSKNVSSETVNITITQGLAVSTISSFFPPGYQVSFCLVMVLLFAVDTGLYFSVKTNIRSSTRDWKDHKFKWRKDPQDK
UniProt P12314, sequence (P12314 16-374): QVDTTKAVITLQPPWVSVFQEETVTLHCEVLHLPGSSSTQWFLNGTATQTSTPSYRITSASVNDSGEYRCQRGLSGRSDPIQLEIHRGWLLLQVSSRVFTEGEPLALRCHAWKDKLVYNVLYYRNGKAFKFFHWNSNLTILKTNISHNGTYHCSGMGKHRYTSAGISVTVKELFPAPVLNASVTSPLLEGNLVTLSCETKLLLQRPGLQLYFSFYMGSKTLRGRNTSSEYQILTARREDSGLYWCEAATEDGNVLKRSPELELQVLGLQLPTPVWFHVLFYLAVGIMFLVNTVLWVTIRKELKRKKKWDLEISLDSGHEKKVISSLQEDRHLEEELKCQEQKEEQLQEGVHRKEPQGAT
UniProt P16410, sequence (P16410 36-223): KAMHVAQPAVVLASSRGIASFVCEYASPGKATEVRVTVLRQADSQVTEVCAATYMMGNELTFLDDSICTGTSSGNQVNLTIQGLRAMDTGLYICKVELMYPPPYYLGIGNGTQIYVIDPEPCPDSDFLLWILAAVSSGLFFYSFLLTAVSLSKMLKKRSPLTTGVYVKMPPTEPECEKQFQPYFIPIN

Which results are given for C1q (complex)?
Kd [1]: 2.53 nM; koff [1]: 0.00517 s⁻¹; kon [1]: 2.05e+06 M⁻¹ s⁻¹

How did the EC50 [2] turn out when Cadonilimab (bispecific antibody) was run?
Its EC50 is 3.93 nM and 3.09 nM.

What about the EC50 [3] of the same substance?
Its EC50 is 1.81 nM and 2.62 nM.

And the EC50 [4]?
The EC50 was 0.051 nM.

And the EC50 [5]?
Its EC50 is 0.792 nM and 1.43 nM.

And the fold higher binding avidity than with low-density PD-1 [6]?
The fold higher binding avidity than with low-density PD-1 was 10 fold.

For “Cadonilimab (hG1WT) (bispecific antibody)”, which Kd [7] is on record?
Its Kd is 221 nM.

What about the koff [7] of the same substance?
Its koff is 0.0247 s⁻¹.

And the kon [7]?
The kon was 112000 M⁻¹ s⁻¹.

And the Kd [8]?
Its Kd is 5.92 nM.

What about the koff [8] of the same substance?
The koff was 0.00181 s⁻¹.

What about the kon [8] of the same substance?
The kon was 306000 M⁻¹ s⁻¹.

And the Kd [9]?
The Kd was 177 nM.

And the koff [9]?
The koff was 0.0214 s⁻¹.

And the kon [9]?
Its kon is 121000 M⁻¹ s⁻¹.
